{
  "source": "patent US20080138334A1",
  "about": "“Immune-Derived Moieties Reactive Against Bioactive Lipids, and Methods of Making and Using Same” (priority 2006, published 2008)",
  "molecules": {"B1": {"name": "anti-S1P mAb: murine IgG1 kappa monoclonal antibody against S1P from hybridoma clone 306D326.26 (ATCC SD-5362) (antibody, V domains shown)", "VH": "QAHLQQSDAELVKPGASVKISCKVSGFIFIDHTIHWMKQRPEQGLEWIGCISPRHDITKYNEMFRGKATLTADKSSTTAYIQVNSLTFEDSAVYFCARGGFYGSTIWFDFWGQGTTLTVS", "VL": "ETTVTQSPASLSMAIGEKVTIRCITTTDIDDDMNWFQQKPGEPPNLLISEGNILRPGVPSRFSSSGYGTDFLFTIENMLSEDVADYYCLQSDNLPFTFGSGTKLEIK"}},
  "key": {"[1]": {"experiment": "Direct ELISA, chimeric antibody and mutants binding to S1P", "conditions": "for Binding: antibody concentration 0.1 ug/ml, S1P-coated plate", "protocol": "Microtiter ELISA plates (Costar) were coated overnight with S1P diluted in 1 M Carbonate Buffer (pH 9.5) at 37° C. for 1 hr. Plates were washed with PBS (137 mM NaCl, 2.68 mM KCl, 10.1 mM Na2HPO4, 1.76 mM KH2PO4; pH 7.4) and blocked with PBS/BSA/Tween-20 for 1 hr at room temp or overnight at 4° C. For the primary incubation (1 hr at room temp.), a standard curve using the anti-S1P mAb and the samples to be tested for binding was built using the following set of dilutions: 0.4 μg/mL, 0.2 μg/mL, 0.1 μg/mL, 0.05 μg/mL, 0.0125 μg/mL, and 0 μg/mL, and 100 μl added to each well. Plates were washed and incubated with 100 μl per well of HRP conjugated goat anti-mouse (1:20,000 dilution) (Jackson Immuno Research) or HRP conjugated goat anti-human (H+L) diluted 1:50,000 (Jackson Immuno Research) for 1 hr at room temperature. After washing, the enzymatic reaction was detected with tetramethylbenzidine (Sigma) and stopped by adding 1 M H2SO4. The optical density (OD) was measured at 450 nm using a Thermo Multiskan EX. Raw data were transferred to GraphPad software for analysis.\nThe chromogenic reaction was measured and reported as Optical density (OD). The concentration of the panel of antibodies was 0.1 ug/ml. No interaction of the second antibody with S1P-coated matrix alone was detected."}, "Caki-1 cells": {"test_system": "Caki-1 cells", "experiment": "In vitro IL-8 production, ELISA of culture supernatants", "assay_type": "cell-based, human", "conditions": "18:1 LPA (0.2 mM), 24h, non-treated cells", "protocol": "Three anti-LPA mAbs (B3, B7 and B58) were tested for their abilities to reduce in vitro IL-8 production compared to a non-specific antibody (NS). Caki-1 cells were seeded in 96 well plates and grown to confluency. After overnight serum starvation, cells were treated with 18:1 LPA (0.2 mM) with or without anti-LPA mAb B3, B7, B58 or NS (Non-Specific). After 24h, cultured supernatants of renal cancer cells (Caki-1), treated with or without LPA and in presence of increasing concentrations of the anti-LPA mAbs B3, B7 and B58, were collected and analyzed for IL-8 levels using a commercially available ELISA kit (Human Quantikine Kit, R&D Systems, Minneapolis, Minn.). […] Similar results were obtained with the other well-known pro-angiogenic factor, VEGF. The inhibition of IL-8 release by the anti-LPA mAbs was also observed in other cancerous cell lines such as the pancreatic cell line Panc-1."}, "[2]": {"experiment": "BIAcore binding kinetics of anti-S1P mAb to immobilized S1P", "conditions": "depending on monovalent or bivalent binding model, read-out: affinity of the monoclonal antibody to S1P", "protocol": "Binding kinetics: The binding kinetics of S1P to its receptor or other moieties has, traditionally, been problematic because of the nature of lipids. Many problems have been associated with the insolubility of lipids. For BIAcore measurements, these problems were overcome by directly immobilizing S1P to a BIAcore chip. Antibody was then flowed over the surface of the chip and alterations in […] were measured to determine the binding characteristics of the antibody to S1P. To circumvent the bivalent binding nature of antibodies, S1P was coated on the chip at low densities. Additionally, the chip was coated with various densities of S1P (7, 20, and 1000 RU) and antibody binding data was globally fit to a 1:1 interaction model."}, "[3]": {"experiment": "ELISA with exchanged crosslinker or protein carrier in the laydown material", "assay_type": "binding", "excerpt": "For example, the normal crosslinker SMCC was exchanged for IOA in conjugating the thiolated-S1P to BSA as the laydown material in the ELISA. […] Similarly, KLH was exchanged for BSA as the protein that was complexed with thiolated-S1P as the laydown material."}, "[4]": {"experiment": "Competitive ELISA for cross reactivity of anti-S1P mAb, competitor DH-S1P", "assay_type": "binding", "protocol": "(§1) Screening of serum and cell supernatant for S1P-specific antibodies was by direct ELISA using the thiolated S1P analog described in Example 1 (i.e., compound 10) as the antigen. A standard ELISA was performed, as described below, except that 50 ul of sample (serum or cell supernatant) was diluted with an equal volume of PBS/0.1% Tween-20 (PBST) during the primary incubation. ELISAs were performed in 96-well high binding ELISA plates (Costar) coated with 0.1 μg of chemically-synthesized compound 10 conjugated to BSA in binding buffer (33.6 mM Na2CO3, 100 mM NaHCO3; pH 9.5). The thiolated-S1P-BSA was incubated at 37° C. for 1 hr. at 4° C. overnight in the ELISA plate wells. The plates were then washed four times with PBS (137 mM NaCl, 2.68 mM KCl, 10.14 mM Na2HPO4, 1.76 mM KH2PO4; pH 7.4) and blocked with PBST for 1 hr. at room temperature. For the primary incubation step, 75 uL of the sample (containing the S1P to be measured), was incubated with 25 uL of 0.1 ug/mL anti-S1P mAb diluted in PBST and added to a well of the ELISA plate. […] Optical density of the samples was determined by measurement at 450 nm using an EL- X-800 ELISA plate reader (Bio-Tech).\n(§2) For cross reactivity, a competitive ELISA was performed as described above, except for the following alterations (FIG. 4). […] Biotin incorporation was determined as per kit protocol and ranged from 7 to II biotin molecules per antibody. […]"}, "[5]": {"experiment": "Competitive ELISA for cross reactivity of anti-S1P mAb, competitor SPC", "assay_type": "binding", "conditions": "competitor SPC (free phosphate linked with a choline)", "protocol": "as §1, §2"}, "[6]": {"experiment": "Competitive ELISA for cross reactivity of anti-S1P mAb, competitor C1P", "assay_type": "binding", "conditions": "C1P (amino group esterified to a fatty acid)", "protocol": "as §1, §2"}, "[7]": {"experiment": "Competitive ELISA for cross reactivity of anti-S1P mAb, competitor LPA", "assay_type": "binding", "conditions": "LPA (glycerol backbone)", "protocol": "as §1, §2"}, "[8]": {"experiment": "Competitive ELISA for cross reactivity of anti-S1P mAb, competitor S1P", "assay_type": "binding", "protocol": "as §1, §2"}},
  "note": "Entries after “also recorded” stand apart in the source; their conditions may differ. Where two headings read alike, the source gives them in different places.",
  "data": [
    {"molecule": "CysPhe", "values": [
      {"measurement": "binding to S1P compared with the chimeric antibody", "setting": "[1]; ELISA, substitution of Cys at position 50 of heavy chain", "value": "did not alter the binding"},
      {"measurement": "Binding", "setting": "[1]", "value": 2, "unit": "OD"}
    ]},
    {"molecule": "MetLeu", "values": [
      {"measurement": "Binding", "setting": "[1]", "value": 1.6, "unit": "OD"}
    ]},
    {"molecule": "lysophosphatidic acid [LPA]", "values": [
      {"measurement": "increase of the expression of IL-8", "setting": "Caki-1 cells", "value": 100, "unit": "%"}
    ]},
    {"molecule": "B1", "values": [
      {"measurement": "Kd", "setting": "[2]; lower end", "value": "~0.088", "unit": "nM"},
      {"measurement": "Kd", "setting": "[2]; upper end", "value": "~99", "unit": "nM"},
      {"measurement": "binding characteristics versus BSA laydown", "setting": "[3]; KLH exchanged for BSA as protein", "value": "no significant difference"},
      {"measurement": "binding characteristics versus BSA-SMCC-thiolated-S1P laydown", "setting": "[3]; SMCC exchanged for IOA", "value": "nearly identical"},
      {"measurement": "competition for the mAb binding to S1P on the plate", "setting": "[4]", "value": "can compete for binding"},
      {"measurement": "competition for the mAb binding to S1P on the plate", "setting": "[5]", "value": "somewhat reduced; also recorded: only slightly competes for binding"},
      {"measurement": "antibody binding", "setting": "[6]", "value": "no antibody binding was observed"},
      {"measurement": "antibody binding", "setting": "[7]", "value": "no binding"},
      {"measurement": "distinction of thiolated-S1P analog (compound 10) from natural S1P", "setting": "[8]; competition experiment", "value": "unable to distinguish"},
      {"measurement": "competition for the mAb binding to S1P on the plate", "setting": "[8]; competitor free S1P", "value": "can compete for binding"}
    ]}
  ]
}
